Reference: the supplement of paper PMC10724198
± gives the standard deviation of the averaged measurements.

test system: Saccharomyces cerevisiae; assay: protein stability index of tFT-peptide fusion (C-terminal peptide) (PSI (0-1 scale)); higher = more stable (slower turnover); details: genetic background: wild type; temperature: 30 C
Procedure: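 Multiplexed protein stability (MPS) profiling in S. cerevisiae. Random 12-aa peptides (tFT-X12 library) are fused to the C-terminus of a sfGFP-mCherry tandem fluorescent timer, after mCherry and a GGGS linker. Cells are FACS-sorted into 8 mCherry/sfGFP bins and deep-sequenced. The protein stability index (PSI) is the read-weighted bin average, scaled from 0 (unstable) to 1 (stable). Only peptides with >10 reads are reported; cells were grown at 30 °C in SC-His with glucose.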
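Further: PSI is a weighted mean of sequencing reads over stability bins, variants kept only with over 10 reads, mCherry proximal and sfGFP distal, peptide attached via GGGS linker.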

KRPVTPTFGRLQ and KRQKENRKNKKI are within error of each other in protein stability index: 0.645 ± 0.067 for the first, 0.704 ± 0.019 for the second.

KRRRWFILSGPL and KRSGEGREKIRK are within error of each other in protein stability index: 0.685 ± 0.008 for the first, 0.703 ± 0.028 for the second.

KRSIVSTDKDRY and KRVIVRLASYAS are within error of each other in protein stability index: 0.603 ± 0.045 for the first, 0.55909 ± 2.1e-05 for the second.

KSGVWLWGGGGG and KSKKERREKKKA are within error of each other in protein stability index: 0.724 ± 0.032 for the first, 0.665 ± 0.031 for the second.

KSKKNKTEKTKE and KSKKRERDETKK are within error of each other in protein stability index: 0.665 ± 0.027 for the first, 0.645 ± 0.033 for the second.

KSKQKNKTQVKN and KSPSTRATTHTY are within error of each other in protein stability index: 0.66 ± 0.023 for the first, 0.678 ± 0.028 for the second.

KSRLYVDVLMQR and KSRTRNNVSRVG are within error of each other in protein stability index: 0.659 ± 0.077 for the first, 0.6703 ± 0.0062 for the second.

First: KSVVRLPHLPLE
Second: KTDNTRTQKMVR
The protein stability index of the first is lower: 0.695 ± 0.02 for the first, 0.808 ± 0.011 for the second.

KTEEERKKAEKE and KTGEKIKKNNIK are within error of each other in protein stability index: 0.653 ± 0.076 for the first, 0.692 ± 0.059 for the second.

Compared with KTKERKKQMRKI, KTKKKNKKDQKM is lower in protein stability index: 0.6822 ± 0.0042 for the first, 0.6661 ± 0.0047 for the second.

KTKKKRKQKGKQ and KTKKRKTKKKTK are within error of each other in protein stability index: 0.684 ± 0.064 for the first, 0.723 ± 0.036 for the second.

KTKKTKRRHKAE and KTKNIKTKDKPE are within error of each other in protein stability index: 0.662 ± 0.022 for the first, 0.673 ± 0.024 for the second.

Compared with KTKSKNGNQRAT, KTQKKKKKNKNF is lower in protein stability index: 0.711 ± 0.025 for the first, 0.51 ± 0.028 for the second.

KTVKNGKEVKIH and KTVVYDDRKQLR are within error of each other in protein stability index: 0.635 ± 0.12 for the first, 0.674 ± 0.0096 for the second.

Going from KVAILAIPKCWT to KVDRREGSRGGG, the protein stability index rises from 0.644 ± 0.022 to 0.6816 ± 0.004.

Going from KVGLGGRLQSYP to KVKGGELVRTLR, the protein stability index rises from 0.6338 ± 0.0054 to 0.736 ± 0.021.

Compared with KVSPTAGLTSRI, KVSSCLTNFILV is lower in protein stability index: 0.711 ± 0.061 for the first, 0.552 ± 0.029 for the second.

KVVSGLKSGPVQ and KWSETGQDGIER are within error of each other in protein stability index: 0.677 ± 0.055 for the first, 0.701 ± 0.081 for the second.

KYIKNKKEKTEE and KYISKKKKEKKK are within error of each other in protein stability index: 0.701 ± 0.017 for the first, 0.684 ± 0.06 for the second.

KYPVDHHTPLSS and LAARRHRACPPR are within error of each other in protein stability index: 0.703 ± 0.021 for the first, 0.67 ± 0.014 for the second.

Going from LAASVTERPAGR to LAAWQPTSYASV, the protein stability index falls from 0.703 ± 0.011 to 0.592 ± 0.092.

Going from LACLPPLLLFSL to LADSLILWRFPT, the protein stability index rises from 0.539 ± 0.00097 to 0.722 ± 0.087.

LAEFTCTQGCSY and LAFGLGSFVWNC are within error of each other in protein stability index: 0.67 ± 0.088 for the first, 0.6765 ± 0.00075 for the second.

LAKVNSLLGFSK and LALDPVNLVTSL are within error of each other in protein stability index: 0.734 ± 0.037 for the first, 0.682 ± 0.051 for the second.

LAPLRGHDHSRA and LARLFQLLERPW are within error of each other in protein stability index: 0.6638 ± 0.0055 for the first, 0.688 ± 0.063 for the second.

LATIPTFPPLPP and LCAFPFSHPSSI are within error of each other in protein stability index: 0.634 ± 0.089 for the first, 0.74 ± 0.05 for the second.

LCGAFLPPPFSR and LCGLDCLLRPCY are within error of each other in protein stability index: 0.686 ± 0.052 for the first, 0.681 ± 0.011 for the second.

Compared with LCGYAMSFRPLG, LCHLSSFLAALS is lower in protein stability index: 0.73 ± 0.091 for the first, 0.618 ± 0.012 for the second.

First: LCILIFLFRCIL
Second: LCLDHAKQNPGK
The protein stability index of the first is lower: 0.551 ± 0.036 for the first, 0.6641 ± 0.0051 for the second.

LCLRPVISLPHL and LCPLPPPTVPLP are within error of each other in protein stability index: 0.716 ± 0.075 for the first, 0.742 ± 0.02 for the second.

Going from LCPVLRSPFFLF to LCVAFWLGLPTT, the protein stability index rises from 0.55128 ± 0.00052 to 0.598 ± 0.011.

Compared with LCVGQVGLWVGR, LCYLPLTLPPVL is lower in protein stability index: 0.703 ± 0.042 for the first, 0.582 ± 0.036 for the second.

First: LDEQIKIRIKEK
Second: LDFSAWRYGRSW
The protein stability index of the first is lower: 0.721 ± 0.046 for the first, 0.83 ± 0.038 for the second.

LDGLFWHRPCFK and LDLSIKNPIKWR are within error of each other in protein stability index: 0.734 ± 0.061 for the first, 0.747 ± 0.089 for the second.

LDQQKSCHLIFL and LDSPGIDRRSFM are within error of each other in protein stability index: 0.663 ± 0.033 for the first, 0.737 ± 0.064 for the second.

LEGGACFGVCEW and LERDRLINVLPI are within error of each other in protein stability index: 0.6956 ± 0.0048 for the first, 0.726 ± 0.042 for the second.

LESEDDRKLSLL and LETETKKPQNQK are within error of each other in protein stability index: 0.659 ± 0.011 for the first, 0.724 ± 0.11 for the second.

LFCLCYDVCVPS and LFCVSGSRPLTF are within error of each other in protein stability index: 0.662 ± 0.035 for the first, 0.714 ± 0.034 for the second.

First: LFFLRFSHFFVG
Second: LFFRVLDRLGEI
The protein stability index of the first is lower: 0.605 ± 0.014 for the first, 0.726 ± 0.021 for the second.

Going from LFGAIPRVEHAD to LFGNPVLSYFVI, the protein stability index falls from 0.718 ± 0.088 to 0.5549 ± 0.0053.

LFLARLSGHFGA gave a protein stability index of 0.728 ± 0.16.
